In the Human Domainome abundance scans (Beltran et al. 2025):

B1: SH3 and PX domain-containing protein 2B, residues 155 to 209; numbered along this chain, A1X283 (parent)
chain: EQYVVVANYQKQESSEISLSVGQVVDIIEKNESGWWFVSTAEEQGWVPATCLEGQ

Variants of: B1
Assay: abundance fitness (aPCA) (normalised: wild type 0, dead -1); higher = more abundant; growth selection in yeast, the domain comes from the species named
Settings: Homo sapiens

Abundance fitness: each site, then its substitutions
P48: S -0.544, M -0.76, F -0.998, G -1, E -0.522, D -0.252, L -0.455, H -0.455, I -0.956, T -0.888, V -0.79, N -0.492, A -0.626, R -0.306, W -0.835, Q -0.568, Y -1.03, C -0.614, K -0.334
E53: Y -0.252, V -0.128, D -0.073, M -0.144, T -0.018, G -0.008, W -0.477, L -0.2, Q 0.027, K -0.004, H -0.138, A -0.014, C -0.14, R -0.064, F -0.33, I -0.289, S -0.05
V47: A -0.106, Y -0.45, S -0.567, C 0.001, F -0.229, D -1.1, P -0.922, E -0.776, G -0.493, H -0.967, W -1.11, N -1.05, R -0.72, M -0.453, L -0.319, T -0.552, I 0.11, K -0.929
W46: D -0.652, I -0.299, M -0.039, Y -0.051, A -0.599, R -0.17, Q -0.37, C -0.233, T -0.437, K -0.273, G -1.08, F -0.036, E -0.91
T50: S -0.046, E -0.096, N -0.159, Q -0.161, H -0.299, K 0.09, M -0.243, P -0.134, Y -0.095, D -0.093, A -0.052, F -0.337, R -0.023, G 0.001, W 0.049, L -0.125, C -0.144
G45: M -0.632, A -0.604, T -0.683, L -0.444, I -0.643, E -1.21, Q -0.734, W -0.919, R -0.723, H -0.815, P -1.19, C -0.779, D -0.964, K -0.547, S -0.965, F -0.744, V -0.7, N -0.95
C51: P -0.959, R -0.343, A -0.12, Q -0.349, L -0.267, Y -0.271, W -0.596, M -0.787, S -0.219, V -0.107, H -0.322, D -0.737, T -0.222, K -0.245, E -0.944, G -0.711, F -0.212
A49: D -0.214, Q -0.327, E -0.273, W -0.586, N 0.02, L -0.012, M 0.003, F -0.139, G -0.016, R -0.146, C 0.045, H 0.118, K -0.053, T -0.191, V -0.207, P -0.105, Y -0.237
L52: E -1.1, Y -1.07, T -1.22, Q -1.05, M -0.168, W -0.775, H -0.773, N -1.05, P -0.826, K -0.647, V -0.049, D -0.942, R -0.835, C -0.227, F -0.083
Q44: I -0.208, T -0.101, P -0.807, G -0.151, S -0.136, Y -0.376, C -0.216, D -0.14, K -0.106, R 0.001, M -0.122, E -0.143, L -0.337, H -0.085, F -0.207, V -0.225
